From patent US20240132548A1 (Janssen / Centocor, published 2024)
Changes are numbered by the printed parent chain.

How the values were obtained:
Test in all cases: BLI (Octet), biotinylated mAb on streptavidin sensors, culture supernatant
[1] = biological target: T1, RSV181180 (I152M + K226M + D486N + S215P + P101Q) (respiratory syncytial virus, subgroup B …, UniProt O36634 26-109; P13843 137-540)
T1 chain 1: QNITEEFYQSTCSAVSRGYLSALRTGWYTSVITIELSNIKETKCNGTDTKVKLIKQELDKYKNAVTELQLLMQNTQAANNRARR
T1 chain 2: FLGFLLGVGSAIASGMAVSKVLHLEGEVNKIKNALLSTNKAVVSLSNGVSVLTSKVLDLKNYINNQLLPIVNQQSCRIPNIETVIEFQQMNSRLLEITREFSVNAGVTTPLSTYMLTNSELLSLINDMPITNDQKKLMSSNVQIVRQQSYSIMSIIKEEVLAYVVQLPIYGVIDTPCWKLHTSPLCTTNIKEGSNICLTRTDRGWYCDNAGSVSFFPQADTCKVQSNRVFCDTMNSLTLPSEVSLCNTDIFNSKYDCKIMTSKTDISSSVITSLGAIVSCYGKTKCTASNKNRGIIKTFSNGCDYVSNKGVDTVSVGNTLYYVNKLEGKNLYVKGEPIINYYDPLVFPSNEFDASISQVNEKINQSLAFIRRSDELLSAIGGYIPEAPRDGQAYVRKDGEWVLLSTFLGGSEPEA
Experimental: (§1) Quantitative Octet (BioLayer Interferometry) was used for measuring protein concentration in the supernatants at day of harvest and after 7 or 30 days storage at 4° C. CR9501 (an antibody specifically recognizing pre-fusion RSV F protein, which comprises the variable regions of the antibodies 58C5 as described in WO2012/006596) and CR9506 (recognizing pre-fusion and post-fusion RSV F protein and comprising a heavy chain variable region comprising SEQ ID NO: 21, and a light chain variable region comprising SEQ ID NO: 22) were biotinylated by standard protocols and immobilized on Streptavidin biosensors (ForteBio, Portsmouth, UK).
(§2) Afterwards, the coated biosensors were blocked in mock cell culture supernatant. A quantitative experiment was performed as follows: temperature 30° C., shaking speed 1000 rpm, time of the assay 300 sec. The concentration of the protein was calculated using a standard curve. The standard curve was prepared for each coated antibody CR9501 and CR9506 using the pre-fusion RSV FA protein (SEQ ID NO: 19; described previously in WO17174568) diluted in mock medium. […] The data analysis was done using the ForteBio Data Analysis 10.0.1.6 software (ForteBio).

[2] = biological target: T2, RSV180910 (RSV FB signal peptide, C-tag) (respiratory syncytial virus, subgroup B …, UniProt O36634 26-109; P13843 137-540)
T2 construct: Same mature protein as RSV180916, expressed with the RSV B signal peptide; measured in culture supernatant, furin co-transfected
T2 chain 1: T1 chain 1
T2 chain 2: T1 chain 2 with L67I
Experimental: as §1, §2

[3] = biological target: T3, RSV181178 (I152M + K226M) (respiratory syncytial virus, subgroup B …, UniProt O36634 26-109; P13843 137-540)
T3 construct: Measured in crude culture supernatant, no furin co-transfection
T3 chain 1: T1 chain 1 with Q76P
T3 chain 2: T1 chain 2 with P79S, N350D
Experimental: as §1, §2

[4] = biological target: T4, RSV180916 (I152M + K226M + D486N + S215P + L203I + P101Q; C-tag, RSV A signal peptide) (respiratory syncytial virus, subgroup B …, UniProt O36634 26-109; P13843 137-540)
T4 chain 1: T1 chain 1
T4 chain 2: T1 chain 2 with L67I
Experimental: as §1, §2

Measured: binding result

B1: CR9506 (antibody, human IgG1, kappa, V domains shown)
VH: EVQLVQSGAEVKKPGSSVKVSCKASGGTFSRSLITWVRQAPGQGLEWMGEISLVFGSAKNAQKFQGRVTITADESTSTAHMEMISLKHEDTAVYYCAAHQYGSGTHNNFWDESELRFDLWGQGTLVTVSS
VL: DIVMTQSPSSLSASVGDRVTIACRASQSIGTYLNWYQQKPGKAPKLLIYAASSLQSGVPSRFSGSGSGTHFTLAISSLQAEDFATYSCQQSYTIPYTFGQGTKLEIKR
notes: Biotinylated for Octet; coated and also used HRP-labelled as detection antibody in the ELISA
binds: all assays above
